Measured values: paper PMC2862694 (Cellular signalling, 2010)

B1: Gαi/q chimera (other)
chain: MGCTLSAEDKAAVERSKMIDRNLREDGERSRRELKLLLLGTGESGKSTFIKQMRIIHGSGYSDEDKRGFTKLVYQNIFTAMQAMIRAMDTLKIPYKYEHNKAHAQLVREVDVEKVSAFENPYVDAIKSLWNDPGIQECYDRRREYQLSDSTKYYLNDLDRVADPSYLPTQQDVLRVRVPTTGIIEYPFDLQSVIFRMVDVGGQRSERRKWIHCFENVTSIMFLVALSEYDQVLVESDNENRMEESKALFRTIITYPWFQNSSVILFLNKKDLLEEKIMYSHLVDYFPEYDGPQRDAQAAREFILKMFVDLNPDSDKIIYSHFTCATDTENIRFVFAAVKDTILQLNLKEYNLV
modifications: biotinylated (bead-bound in FCPIA)

What was measured:
Test in all cases: flow cytometry protein interaction assay
[1] = target: p63RhoGEF DH/PH 2A alanine insertion mutant (human, UniProt Q86VW2-1 149-502, 2A: 2 alanines inserted after Thr338)
[2] = target: p63RhoGEF DH/PH 3A alanine insertion mutant (human, UniProt Q86VW2-1 149-502, 3A: 3 alanines inserted after Thr338)
[3] = target: p63RhoGEF DH/PH 4A alanine insertion mutant (human, UniProt Q86VW2-1 149-502, 4A: 4 alanines inserted after Thr338)
[4] = target: p63RhoGEF DH/PH 5A alanine insertion mutant (human, UniProt Q86VW2-1 149-502, 5A: 5 alanines inserted after Thr338)
[5] = target: p63RhoGEF DH/PH 6A alanine insertion mutant (human, UniProt Q86VW2-1 149-502, 6A: 6 alanines inserted after Thr338)
[6] = target: p63RhoGEF DH/PH 7A alanine insertion mutant (human, UniProt Q86VW2-1 149-502, 7A: 7 alanines inserted after Thr338)
[7] = target: p63RhoGEF DH/PH 1A alanine insertion mutant (human, UniProt Q86VW2-1 149-502, 1A: 1 alanine inserted after Thr338)
[8] = target: T1, RhoA (UniProt P61586 1-193, biotinylated where bead-bound; Alexa Fluor 532 label where AF-labeled)
[9] = target: T1, RhoA; remark: listed apart in the source
[10] = target: B1

T1 sequence (P61586 whole entry): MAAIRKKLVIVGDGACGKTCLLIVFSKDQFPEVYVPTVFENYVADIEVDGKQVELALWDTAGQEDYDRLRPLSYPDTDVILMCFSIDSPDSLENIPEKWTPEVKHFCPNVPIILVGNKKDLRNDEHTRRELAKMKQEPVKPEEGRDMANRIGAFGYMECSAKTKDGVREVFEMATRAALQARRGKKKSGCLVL

Row | Ki [9] [nM] | Ki [10] [nM] | Binder | other results
1 |  |  | B1 | binding result [1]: binds; binding result [2]: binds; binding result [3]: binds; binding result [4]: binds; binding result [5]: binds; binding result [6]: binds; binding result [7]: binds
2 |  |  | Gαi/q bound to p63RhoGEF DH/PH wild type (complex, biotinylated (bead-bound)) chain 1: MGCTLSAEDKAAVERSKMIDRNLREDGERSRRELKLLLLGTGESGKSTFIKQMRIIHGSGYSDEDKRGFTKLVYQNIFTAMQAMIRAMDTLKIPYKYEHNKAHAQLVREVDVEKVSAFENPYVDAIKSLWNDPGIQECYDRRREYQLSDSTKYYLNDLDRVADPSYLPTQQDVLRVRVPTTGIIEYPFDLQSVIFRMVDVGGQRSERRKWIHCFENVTSIMFLVALSEYDQVLVESDNENRMEESKALFRTIITYPWFQNSSVILFLNKKDLLEEKIMYSHLVDYFPEYDGPQRDAQAAREFILKMFVDLNPDSDKIIYSHFTCATDTENIRFVFAAVKDTILQLNLKEYNLV chain 2: not shown | Kd [8]: 17 nM
3 | 300 |  | p63RhoGEF DH domain (residues 149-338) (domain or fragment) not shown | 
4 |  | 48 | p63RhoGEF DH/PH-Δ(397-402) (domain or fragment) not shown | 
5 | 1200 | 670 | p63RhoGEF DH/PH-G340I (domain or fragment) not shown | 
6 |  | 40 | p63RhoGEF DH/PH-P330L (domain or fragment) not shown | 
7 | 94 | 120 | p63RhoGEF DH/PH-R341E (domain or fragment, Alexa Fluor 532 label in direct binding to RhoA; unlabeled as competitor) not shown | 
8 |  | 68 | p63RhoGEF DH/PH-M336S (domain or fragment) not shown | 
9 | 190 | 75 | p63RhoGEF DH/PH-R341A (domain or fragment, Alexa Fluor 532 label in direct binding to RhoA; unlabeled as competitor) not shown | 
